Reference: US7166733B2, “O,O'-Amidomalonate and N,O-Amidomalonate platinum complexes” (priority 2000, dated 2007)
Several values for one entry are separate records, joined by “and”; a condition that tells them apart may be missing. Identical values can stand only once.

What was measured:
[1] = Percent Pt released versus pH over time in citrate PBS; assay type: physicochemical; details: 37° C.
Method: A stock solution of citrate PBS that was 10 mM in citrate, 20 mM in phosphate, and 100 mM in NaCl was prepared and split into bottles which were then adjusted to the desired pH. The bottles were warmed to 37° C. in an oven and poly(HPMA)-GFLG-Ama=Pt(NH3)2, N,O-chelate, ˜20 kDa, was added to give a concentration of approximately 2 mg of polymer platinum conjugate per mL buffer. The mixtures were well mixed to give colorless solutions. At the indicated times, three approximately 2.5 mL aliquots were removed from the solution at each pH and transferred to previously washed YM-3 ultracentrifuge devices (Amicon) and spun at 5000 RCF and 37° C. for 50 min. Once all samples for all time points have been collected and prepared, the filtrates and stock solutions are analyzed against Pt standards (0–10 ppm) by ICP-OES at the platinum emission line of 214.42 nm. For each time point and at each pH, three samples were prepared and analyzed.

[2] = Platinum release from PBS; assay type: physicochemical; details: 37° C.
Method: The percent of small platinum species released over time was measured by dissolving about 30 mg of the polymer-platinum conjugate in 15 mL of phosphate buffered saline (10 mM phosphate, 123 mM Cl^−) and incubating the solution at 37° C. in a water bath. At indicated times, 2.0 mL aliquots were transferred to a centrifugal filter with a 3 kDa nominal molecular weight cutoff (Centricon YM-3 from Millipore) and spun until >1.5 mL of filtrate had accumulated. The timed filtrates and the original solution were analyzed for platinum by ICP-OES. The percent of small Pt species released was determined using the formula: ((ppm Pt in filtrate)/(ppm Pt in stock solution))×100.

Substance: poly(HPMA)-GFLG-Ama=Pt(NH3)2, N,O—Pt chelate [Example 4]
- percent Pt released ([1]; pH 3.4, citrate PBS, 1 h): 2.0%
- percent Pt released ([1]; pH 3.4, citrate PBS, 2 h): 4.2 ± 0.1%
- percent Pt released ([1]; pH 3.4, citrate PBS, 4 h): 6.6%
- percent Pt released ([1]; pH 3.4, citrate PBS, 8 h, 100% N,O-chelate, approx. 20 kDa): 12% and 12.0 ± 0.1%
- percent Pt released ([1]; pH 3.4, citrate PBS, 24 h, 100% N,O-chelate, approx. 20 kDa): 30% and 29.1 ± 3.9%
- percent Pt released ([1]; pH 4.4, citrate PBS, 1 h): 0.9 ± 0.1%
- percent Pt released ([1]; pH 4.4, citrate PBS, 2 h): 1.9%
- percent Pt released ([1]; pH 4.4, citrate PBS, 4 h): 3.3 ± 0.4%
- percent Pt released ([1]; pH 4.4, citrate PBS, 8 h): 5.1 ± 1.2%
- percent Pt released ([1]; pH 4.4, citrate PBS, 24 h): 17.0 ± 3.6%
- percent Pt released ([1]; pH 5.4, citrate PBS, 1 h): 0.5%
- percent Pt released ([1]; pH 5.4, citrate PBS, 2 h): 0.9 ± 0.08%
- percent Pt released ([1]; pH 5.4, citrate PBS, 4 h): 1.4 ± 0.2%
- percent Pt released ([1]; pH 5.4, citrate PBS, 8 h): 2.6 ± 0.4%
- percent Pt released ([1]; pH 5.4, citrate PBS, 24 h): 7.3%
- percent Pt released ([1]; pH 6.4, citrate PBS, 1 h): 0.4%
- percent Pt released ([1]; pH 6.4, citrate PBS, 2 h): 0.7 ± 0.07%
- percent Pt released ([1]; pH 6.4, citrate PBS, 4 h): 0.9 ± 0.06%
- percent Pt released ([1]; pH 6.4, citrate PBS, 8 h): 1.3 ± 0.1%
- percent Pt released ([1]; pH 6.4, citrate PBS, 24 h): 2.7 ± 0.1%
- percent Pt released ([1]; pH 7.4, citrate PBS, 1 h): 0.36 ± 0.01%
- percent Pt released ([1]; pH 7.4, citrate PBS, 2 h): 0.5 ± 0.07%
- percent Pt released ([1]; pH 7.4, citrate PBS, 4 h): 0.7 ± 0.04%
- percent Pt released ([1]; pH 7.4, citrate PBS, 8 h): 0.9 ± 0.02%
- percent Pt released ([1]; pH 7.4, citrate PBS, 24 h): 1.6 ± 0.0%
- percent Pt released ([1]; pH 8.2, citrate PBS, 1 h): 0.39 ± 0.0%
- percent Pt released ([1]; pH 8.2, citrate PBS, 2 h): 0.7 ± 0.08%
- percent Pt released ([1]; pH 8.2, citrate PBS, 4 h): 0.7 ± 0.04%
- percent Pt released ([1]; pH 8.2, citrate PBS, 8 h): 0.8 ± 0.16%
- percent Pt released ([1]; pH 8.2, citrate PBS, 24 h): 1.8 ± 0.02%
- Pt release in PBS ([2]; 3 hours): 0.6%
- Pt release in PBS ([2]; 24 hours): 2.0%
